Patent US20150329637A1 (NUMAB, published 2015)
Read-outs that look alike come from different tables or passages of the source.

Legend:
[1] = molecular target: mouse CD3 (mouse CD36E [sic], Sino Biologicals Inc., Cat. No. CT033-M2508H) (mouse) (UniProt P22646); assay: SPR
[2] = molecular target: T1, mouse IL23R (as used in the SPR of PRO387 and PRO386) (mouse, UniProt Q8K4B4 24-372, limits assumed); assay: SPR
T1 sequence (looked up): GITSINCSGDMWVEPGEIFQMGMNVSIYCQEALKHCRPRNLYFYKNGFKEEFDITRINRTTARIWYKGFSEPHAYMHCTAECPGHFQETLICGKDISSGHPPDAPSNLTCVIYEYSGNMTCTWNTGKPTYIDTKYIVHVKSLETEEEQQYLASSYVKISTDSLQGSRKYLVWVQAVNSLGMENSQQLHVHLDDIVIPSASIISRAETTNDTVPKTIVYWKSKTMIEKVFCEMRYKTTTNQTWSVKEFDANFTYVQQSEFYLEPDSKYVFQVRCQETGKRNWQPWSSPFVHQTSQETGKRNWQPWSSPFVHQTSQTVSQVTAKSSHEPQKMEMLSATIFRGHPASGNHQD

[3] = molecular target: mouse CD3 (mouse CD36E [sic], Sino Biologicals Inc., Cat. No. CT033-M2508H) (mouse) (UniProt P22646); assay: SPR; remark: listed apart in the source
[4] = molecular target: T1, mouse IL23R (as used in the SPR of …); assay: SPR; remark: listed apart in the source
[5] = molecular target: T2, recombinant human IL23R Fc chimera (R&D Systems, Cat. No. 1400-IR-050) (human, UniProt Q5VWK5 24-353); assay: SPR; IL23R Fc chimera captured by anti-human Fc, scFv injected
T2 construct: Bought reagent; not shown: Fc part (and any linker) of the bought chimera; captured by an anti-human IgG Fc antibody
T2 sequence (looked up): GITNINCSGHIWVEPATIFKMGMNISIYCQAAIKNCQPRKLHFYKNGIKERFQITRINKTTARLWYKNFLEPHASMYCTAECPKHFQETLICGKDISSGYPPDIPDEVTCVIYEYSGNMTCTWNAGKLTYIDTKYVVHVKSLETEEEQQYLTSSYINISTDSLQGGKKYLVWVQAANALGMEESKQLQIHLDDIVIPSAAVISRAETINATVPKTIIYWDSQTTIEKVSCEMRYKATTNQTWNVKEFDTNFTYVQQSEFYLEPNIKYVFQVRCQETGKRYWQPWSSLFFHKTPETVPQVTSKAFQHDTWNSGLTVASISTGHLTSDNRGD
Experimental: (§1) Binding affinities of anti-IL23R scFvs were measured by surface plasmon resonance (SPR) using a MASS-1 SPR instrument (Sierra Sensors). […] After immobilization, 1 ug/ml recombinant human IL23R Fc chimera (R&D Systems, Cat. No. 1400-IR-050) was captured by the anti-human IgG antibody while a second immobilized channel served as a control where the capture was replaced by buffer. Two-fold serial dilutions of human scFvs ranging from 180 to 2.81 nM were injected into both flow cells for 3 min and dissociation of the scFvs from the chimera on the sensor chip was allowed to proceed for 700 sec. After each injection cycle, surfaces were regenerated with two 1 min injections of 10 mM glycine-HCI pH 1.5. In a similar manner the affinities for cynomolgus and mouse IL23R Fc chimera (R&D Systems, Cat. No. 1686-MR-050) was measured. The apparent dissociation (kd) and association (ka) rate constants and the apparent dissociation equilibrium constant (KD) were calculated with the MASS-1 analysis software (Analyzer, Sierra Sensors) using one-to-one Langmuir binding model.

[6] = molecular target: T3, cynomolgus IL23R Fc chimera (cynomolgus monkey, UniProt G7NWY5 24-353); assay: as above
T3 construct: Named only in the method sentence 'cynomolgus and mouse IL23R Fc chimera'; also called cyno IL23R; not shown: Fc part of the chimera
T3 sequence: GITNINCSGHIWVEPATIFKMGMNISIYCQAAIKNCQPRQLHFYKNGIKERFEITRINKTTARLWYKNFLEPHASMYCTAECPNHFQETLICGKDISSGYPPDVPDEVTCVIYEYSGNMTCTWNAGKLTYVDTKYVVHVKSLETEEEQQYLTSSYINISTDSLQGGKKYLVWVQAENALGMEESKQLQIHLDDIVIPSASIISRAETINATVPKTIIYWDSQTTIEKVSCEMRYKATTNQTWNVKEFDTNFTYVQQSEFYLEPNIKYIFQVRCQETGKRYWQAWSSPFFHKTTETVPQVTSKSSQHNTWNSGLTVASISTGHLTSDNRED
Experimental: as §1

[7] = molecular target: T4, mouse IL23R Fc chimera (R&D Systems, Cat. No. 1686-MR-050) (mouse, UniProt Q8K4B4 24-372); assay: as above
T4 construct: Bought reagent; Fc part of the bought chimera not given
T4 sequence (looked up): T1 sequence (looked up)
Experimental: as §1

mouse CD3 (mouse CD36E [sic], Sino Biologicals Inc., Cat. No. CT033-M2508H) (mouse), sequence (P22646 22-108, chain 1 of 2): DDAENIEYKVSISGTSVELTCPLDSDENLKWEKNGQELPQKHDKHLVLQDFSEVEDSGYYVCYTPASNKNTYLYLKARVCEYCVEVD
mouse CD3 (mouse CD36E [sic], Sino Biologicals Inc., Cat. No. CT033-M2508H) (mouse), sequence (P04235 22-105, chain 2 of 2, further chain): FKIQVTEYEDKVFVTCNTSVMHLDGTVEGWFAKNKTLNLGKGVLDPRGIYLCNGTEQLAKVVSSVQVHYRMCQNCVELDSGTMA

B1: PRO387 (bispecific antibody)
chain: DIQMTQSPSSLSASVGDRVTITCQASENIYSFLAWYQQKPGKAPKLLIYSASKLAAGVPSRFSGSGSGTDFTLTISSLQPEDFATYYCQQTNRYSNPDIYNVFGQGTKLTVLGGGGGSEVQLVESGGGLVQPGKSLKLSCEASGFTFSGYGMHWVRQAPGRGLESVAYITSSSINIKYADAVKGRFTVSRDNAKNLLFLQMNILKSEDTAMYYCARFDWDKNYWGQGTMVTVSSGGGGSGGGGSGGGGSGGGGSDIQMTQSPSSLPASLGDRVTINCQASQDISNYLNWYQQKPGKAPKLLIYYTNKLADGVPSRFSGSGSGRDSSFTISSLESEDIGSYYCQQYYNYPWTFGPGTKLEIKRGGGGSEVQLVESGGGLVQPGGSLRLSCAASGIDFNSNYYMCWVRQAPGKGLEWIGCIYVGSHVNTYYANWAKGRFTISRDNSKNTVYLQMNSLRAEDTAVYYCATSGSSVLYFKFWGQGTLVTVSS
notes: also called PRO387 (scDb); surrogate scDb
B1 showed a Kd [1] of 9.11 nM, a koff [1] of 0.00213 s⁻¹ and a kon [1] of 233000 M⁻¹ s⁻¹. It also gave a Kd [2] of 4.66 nM, a koff [2] of 0.00326 s⁻¹ and a kon [2] of 701000 M⁻¹ s⁻¹.

B2: PRO386 (bispecific antibody)
light: DIQMTQSPSSLPASLGDRVTINCQASQDISNYLNWYQQKPGKAPKLLIYYTNKLADGVPSRFSGSGSGRDSSFTISSLESEDIGSYYCQQYYNYPWTFGPGTKLEIKRRTVAAPSVFIFPPSDEQLKSGTASVVCLLNNFYPREAKVQWKVDNALQSGNSQESVTEQDSKDSTYSLSSTLTLSKADYEKHKVYACEVTHQGLSSPVTKSFNRGECGGGGSGGGGSHMDIQMTQSPSSLSASVGDRVTITCQASENIYSFLAWYQQKPGKAPKLLIYSASKLAAGVPSRFSGSGSGTDFTLTISSLQPEDFATYYCQQTNRYSNPDIYNVFGQGTKLTVLGGGGGSGGGGSGGGGSGGGGSEVQLVESGGGLVQPGGSLRLSCAASGIDFNSNYYMCWVRQAPGKGLEWIGCIYVGSHVNTYYANWAKGRFTISRDNSKNTVYLQMNSLRAEDTAVYYCATSGSSVLYFKFWGQGTLVTVSS
heavy: EVQLVESGGGLVQPGKSLKLSCEASGFTFSGYGMHWVRQAPGRGLESVAYITSSSINIKYADAVKGRFTVSRDNAKNLLFLQMNILKSEDTAMYYCARFDWDKNYWGQGTMVTVSSASTKGPSVFPLAPSSKSTSGGTAALGCLVKDYFPEPVTVSWNSGALTSGVHTFPAVLQSSGLYSLSSVVTVPSSSLGTQTYICNVNHKPSNTKVDKKVEPKSCGGGGSGGGGSHMDIQMTQSPSSLSASVGDRVTITCQASENIYSFLAWYQQKPGKAPKLLIYSASKLAAGVPSRFSGSGSGTDFTLTISSLQPEDFATYYCQQTNRYSNPDIYNVFGQGTKLTVLGGGGGSGGGGSGGGGSGGGGSEVQLVESGGGLVQPGGSLRLSCAASGIDFNSNYYMCWVRQAPGKGLEWIGCIYVGSHVNTYYANWAKGRFTISRDNSKNTVYLQMNSLRAEDTAVYYCATSGSSVLYFKFWGQGTLVTVSS
notes: Heterodimer; bispecific and trivalent (one anti-CD3 Fab, two anti-IL23R scFvs); also called PRO386 (Tribody); Fab-scFv fusion surrogate
B2 showed a Kd [3] of 11.5 nM, a koff [3] of 0.00196 s⁻¹ and a kon [3] of 171000 M⁻¹ s⁻¹. It also gave a Kd [4] of 0.583 nM, a koff [4] of 0.000533 s⁻¹ and a kon [4] of 915000 M⁻¹ s⁻¹.

B3: PRO400 (Fab, V domains shown)
VH: EVQLVESGGGLVQPGKSLKLSCEASGFTFSGYGMHWVRQAPGRGLESVAYITSSSINIKYADAVKGRFTVSRDNAKNLLFLQMNILKSEDTAMYYCARFDWDKNYWGQGTMVTVSS
VL: DIQMTQSPSSLPASLGDRVTINCQASQDISNYLNWYQQKPGKAPKLLIYYTNKLADGVPSRFSGSGSGRDSSFTISSLESEDIGSYYCQQYYNYPWTFGPGTKLEIKR
Binder B3 has a Kd [1] of 11.4 nM, a koff [1] of 0.00266 s⁻¹ and a kon [1] of 233000 M⁻¹ s⁻¹.

B4: 14-11-D07-sc01 (scFv)
scFv: DIQMTQSPSSLSASVGDRVTITCQASENIYSFLAWYQQKPGKAPKLLIYSASKLAAGVPSRFSGSGSGTDFTLTISSLQPEDFATYYCQQTNRYSNPDIYNVFGQGTKLTVLGGGGGSGGGGSGGGGSGGGGSEVQLVESGGGLVQPGGSLRLSCAASGIDFNSNYYMCWVRQAPGKGLEWIGCIYVGSHVNTYYANWAKGRFTISRDNSKNTVYLQMNSLRAEDTAVYYCATSGSSVLYFKFWGQGTLVTVSS
notes: Humanized scFv (CDR graft on a VK1/VH3 framework); also called anti-IL23R scFv 14-11-D07-sc01
For B4, the Kd [5] was 0.116 nM, the koff [5] was 0.000259 s⁻¹ and the kon [5] was 2.24e+06 M⁻¹ s⁻¹. For the same binder, the Kd [6] was 0.124 nM, the koff [6] was 0.000361 s⁻¹ and the kon [6] was 2.92e+06 M⁻¹ s⁻¹. For the same binder, the Kd [7] was 2.21 nM, the koff [7] was 0.00418 s⁻¹ and the kon [7] was 1.89e+06 M⁻¹ s⁻¹.
